167 variants from the RNAGym collection of RNA variant scans (doi:10.7554/elife.80360) can be followed below.

B1: HDV Ribozyme (parent)
chain: GGCCGGCAUGGUCCCAGCCUCCUCGCUGGCGCCGGCUGGGCAACAUUCCGAGGGGACCGUCCCCUCGGUAAUGGCGAAUGGGACCCA

This series covers variants of B1. The experiment in a line: self-cleavage, relative activity (ratio to wild type); higher = more cleavage; co-transcriptional.
As for U65C A70U, the self-cleavage was found to be 0.789. For U65C A70C the value was 1.17; for U65C A70G, 0.705. On to U65C A71U, for which the self-cleavage worked out at 0.812. For U65C G76C the value was 1.09. The value for U65C G76U was 1.14.

Take U65C G76A: the self-cleavage was 0.918. For U65G G76C the value was 1.15; for C63G C75A, 0.111. The value for C63G C75G was 0.0489; that for C63A G82A was 0.408. For C63A G82U the value was 0.467; for C63A G76C, 0.976; for C63A G76A, 0.875.

Consider C63A G76U, for which the self-cleavage is 1.15. The value for C64U C75A was 0.242; that for C64U C75U was 0.252. Regarding C63G A87C, the self-cleavage stood at 0.737. The value for C63G A87G was 0.858; that for U65A G74C was 0.225; that for U65A G74A was 0.489. For C64A G80A the value was 0.611; for C64U G74A, 0.535; for U65G C86G, 0.752. For U65G C86A the value was 0.988; for C64A U72A, 0.491; for C64A U72C, 0.465.

C64A U72G: the self-cleavage is 0.856. For C64U U72G the value was 0.712; for C64U U72C, 0.612. In the case of C64U, the self-cleavage is 0.995.

C64G: the self-cleavage came out at 0.954. The value for C64A was 0.908. The value for C64A G73C was 0.256. As for C64A U79C, the self-cleavage worked out at 0.636. The value for C63U G80U was 0.224; that for C63U G80A was 0.482; that for C63U G80C was 0.218. For U65A A78U the value was 0.396; for C63U C75G, 0.0755; for C63U C75A, 0.106. The value for U65G A71G was 0.917; that for U65G A71C was 0.755; that for U65A A70G was 1.05. Consider C63G G67U, for which the self-cleavage stood at 0.293. The value for C63G G67C was 0.342. The value for C63G G67A was 0.372. The value for C64U G81C was 0.315.

On to C64U G81A, for which the self-cleavage turned out to be 0.318. For C64U G81U the value was 0.313. For C63A U72C the value was 0.532; for C63A U72G, 0.369; for C63A U72A, 0.542. For C63A U69G the value was 0.884; for C63A U69C, 1.12. As for C63A U69A, the self-cleavage amounted to 0.965.

For C63G C86G, the self-cleavage was found to be 0.95.

As to U65A G73A, the self-cleavage turned out to be 0.342. For U65A G73C the value was 0.415. The value for C63U U65A was 0.849; that for C63U U65G was 0.96; that for C63A G74C was 0.312. The value for C63A G74A was 0.478; that for C63A G74U was 0.515; that for C64G C86U was 0.845. Take C64G C86G: the self-cleavage was 0.859. For U65A A77G the value was 0.643. For U65A A77C the value was 0.277; for C63U C66U, 0.816. The value for U65C C84U was 0.703; that for U65C C84G was 0.646; that for U65C C84A was 0.773. Take C63A G80A: the self-cleavage came out at 0.388. The value for C63A G81C was 0.188; that for C63A G81U was 0.244; that for U65C G74U was 0.523. For U65A A71G the value was 0.831; for U65A A71C, 0.767. The value for U65A A71U was 0.76.

As for C64U C66G, the self-cleavage was 0.748.

C63G A77U: the self-cleavage worked out at 0.277. The value for C63G A77C was 0.58. For the variant C63G A77G, the self-cleavage turned out to be 0.268. The value for C64U U69G was 1.07. The value for C64U U69C was 1.17. For U65C U69G the value was 1.03; for U65C U69A, 0.989; for U65C A83G, 0.862. In the case of U65C A83U, the self-cleavage was 0.369. For U65C A77C the value was 0.465.

As to U65C A77G, the self-cleavage amounted to 0.831. The value for C63A G67U was 0.451; that for C63A G67C was 0.544; that for C63A G67A was 0.35. The value for C64G C75A was 0.201. The value for C64U G73U was 0.345; that for C64U G73C was 0.601. As to C64G U72C, the self-cleavage was 0.364. For C64G G82A the value was 0.535; for C64A G81C, 0.203; for C64A G81U, 0.379. The value for U65G A83C was 0.703. The value for U65G A83G was 0.698. With C64U C85A, the self-cleavage amounted to 1.25. Consider U65A U69G, for which the self-cleavage came to 0.806. For U65A U69A the value was 0.929. For U65A U69C the value was 0.782. The value for U65G A77C was 0.356; that for C63A G68U was 0.764; that for C63A G68A was 0.801. For U65G G74U, the self-cleavage came out at 0.424. U65G G74C: the self-cleavage worked out at 0.309. The value for C64A A83U was 0.511; that for C64A A83C was 0.332.

Take C64A U65A: the self-cleavage turned out to be 0.895. The value for C64A U65G was 0.937. As to U65G U79G, the self-cleavage stood at 1.2. Regarding U65G U79A, the self-cleavage amounted to 0.306. The value for C63U C86U was 1.05. For C63U C86A the value was 0.96; for C64U A78C, 0.138; for C64U A78G, 0.813. For C63A C86A the value was 1.05; for U65A A87C, 1.04. U65A A87G: the self-cleavage was determined as 0.877.

Take C64U G67A: the self-cleavage came to 0.92. For C64U G67U the value was 0.804. For U65A C75G the value was 0.19. The value for U65A C75U was 0.277. With C64U A71C, the self-cleavage is 0.719. With U65C A78U, the self-cleavage was found to be 0.312. The value for U65G G73C was 0.289; that for U65G G73U was 0.47.

With U65G G81C, the self-cleavage was 0.439. Regarding U65G G81U, the self-cleavage is 0.248.

Regarding U65C U79G, the self-cleavage amounted to 0.396. The value for U65C U79A was 0.644; that for U65A C66G was 0.932; that for U65A C66U was 0.812.

For C63A U65A, the self-cleavage came out at 0.427. As for C63A U65G, the self-cleavage was 0.914.

Consider C63A U65C, for which the self-cleavage came to 0.525. For C63G U65G the value was 0.277; for C63G U65C, 0.151; for C63U G73A, 0.831.

For the variant C63U G82A, the self-cleavage was 0.534.

With C63U G82U, the self-cleavage stood at 0.509. As for C63U G82C, the self-cleavage stood at 0.192. The value for U65G G67A was 0.812; that for C63U A71C was 1.15; that for U65A G80U was 0.279. With U65A G80C, the self-cleavage worked out at 0.123. For C63G C84U the value was 0.629; for C63G C84A, 1.06; for U65A G82C, 0.614. For U65A G82A the value was 0.281. The value for C64G A83U was 0.508; that for C64G A83G was 0.708; that for C63U C85A was 0.958.

With C63U C85U, the self-cleavage was found to be 1.01. For U65A U79A the value was 0.727.

Regarding C63G A70C, the self-cleavage was 0.415. The value for C64A G68C was 0.554; that for C64A G68U was 0.272; that for C64G A77U was 0.506. For C64G A77G the value was 0.434; for C63G G81U, 0.375.
